From paper PMC5450233

B1: GST–SKIP(1-310) [not stated] / HA–KHC [rat] (parent)
chain 1: MEPGEVKDRILENISLSVKKLQSYFAACEDEIPAIRNHDKVLQRLCEHLDHALLYGLQDLSSGYWVLVVHFTRREAIKQIEVLQHVATNLGRSRAWLYLALNENSLESYLRLFQENLGLLHKYYVKNALVCSHDHLTLFLTLVSGLEFIRFELDLDAPYLDLAPYMPDYYKPQYLLDFEDRLPSSVHGSDSLSLNSFNSVTSTNLEWDDSAIAPSSEDYDFGDVFPAVPSVPSTDWEDGDLTDTVSGPRSTASDLTSSKASTRSPTQRQNPFNEEPAETVSSSDTTPVHTTSQEKEEAQALDPPDACTEL
chain 2: MADPAECSIKVMCRFRPLNEAEILRGDKFIPKFKGEETVVIGQGKPYVFDRVLPPNTTQEQVYNACAKQIVKDVLEGYNGTIFAYGQTSSGKTHTMEGKLHDPQLMGIIPRIAHDIFDHIYSMDENLEFHIKVSYFEIYLDKIRDLLDVSKTNLAVHEDKNRVPYVKGCTERFVSSPEEVMDVIDEGKANRHVAVTNMNEHSSRSHSIFLINIKQENVETEKKLSGKLYLVDLAGSEKVSKTGAEGAVLDEAKNINKSLSALGNVISALAEGTKTHVPYRDSKMTRILQDSLGGNCRTTIVICCSPSVFNEAETKSTLMFGQRAKTIKNTVSVNLELTAEEWKKKYEKEKEKNKALKSVIQHLEVELNRWRNGEAVPEDEQISAKDQKNLEPCDNTPIIDNITPVVDGISAEKEKYDEEITSLYRQLDDKDDEINQQSQLAEKLKQQMLDQDELLASTRRDYEKIQEELTRLQIENEAAKDEVKEVLQALEELAVNYDQKSQEVEDKTRANEQLTDELAQKTTTLTTTQRELSQLQELSNHQKKRATEILNLLLKDLGEIGGIIGTNDVKTLADVNGVIEEEFTMARLYISKMKSEVKSLVNRSKQLESAQTDSNRKMNASERELAACQLLISQHEAKIKSLTDYMQNMEQKRRQLEESQDSLSEELAKLRAQEKMHEVSFQDKEKEHLTRLQDAEEVKKALEQQMESHREAHQKQLSRLRDEIEEKQRIIDEIRDLNQKLQLEQERLSSDYNKLKIEDQEREVKLEKLLLLNDKREQAREDLKGLEETVSRELQTLHNLRKLFVQDLTTRVKKSVELDSDDGGGSAAQKQKISFLENNLEQLTKVHKQLVRDNADLRCELPKLEKRLRATAERVKALESALKEAKENAMRDRKRYQQEVDRIKEAVRAKNMARRAHSAQIAKPIRPGHYPASSPTAVHAVRGGGGSSNSTHYQK

Variants of: B1
Test: GST pull-down, immunoblot (IB: HA) quantified
Settings: with HA–KHC [rat]; lysates of 293T cells co-expressing HA-KHC and HA-KLC2 (kinesin-1 tetramer); three independent experiments; parent: 1; read off a plot

| Variant | ratio to parent |
| --- | --- |
| chain 1 D220A F221A G222A | 0.38 |
| chain 1 D238A G239A D240A | 0.98 |
| chain 1 E217A D218A Y219A | 0.5 |
| chain 1 W236A E237A | 0.97 |
